# According to article PMC4347215:
# Molecular target: recombinant CA/09 NA, thrombin-cleaved (His-tag depleted) (influenza A virus A/California/07/2009 (H1N1)pdm09) (UniProt C3W5S3)
# Test: crystal structure
substance,measurement,value
"recombinant CA/09 NA, thrombin-cleaved (His-tag depleted) (from UniProt C3W5S3 82-467) (enzyme)",stoichiometry N,4
